Experimental data taken from patent US20100028370A1 (RAPTOR PHARMACEUTICAL, published 2010).

Target: mLRP/LRPTmMegT mini-receptor (fourth ligand binding and transmembrane domains of LRP1 with the C-terminal … (UniProt Q07954 3293-4444))
Assay: cell-based or functional assay

Chain of mLRP/LRPTmMegT mini-receptor (fourth ligand binding and transmembrane domains of LRP1 with the C-terminal … (Q07954 3293-4444): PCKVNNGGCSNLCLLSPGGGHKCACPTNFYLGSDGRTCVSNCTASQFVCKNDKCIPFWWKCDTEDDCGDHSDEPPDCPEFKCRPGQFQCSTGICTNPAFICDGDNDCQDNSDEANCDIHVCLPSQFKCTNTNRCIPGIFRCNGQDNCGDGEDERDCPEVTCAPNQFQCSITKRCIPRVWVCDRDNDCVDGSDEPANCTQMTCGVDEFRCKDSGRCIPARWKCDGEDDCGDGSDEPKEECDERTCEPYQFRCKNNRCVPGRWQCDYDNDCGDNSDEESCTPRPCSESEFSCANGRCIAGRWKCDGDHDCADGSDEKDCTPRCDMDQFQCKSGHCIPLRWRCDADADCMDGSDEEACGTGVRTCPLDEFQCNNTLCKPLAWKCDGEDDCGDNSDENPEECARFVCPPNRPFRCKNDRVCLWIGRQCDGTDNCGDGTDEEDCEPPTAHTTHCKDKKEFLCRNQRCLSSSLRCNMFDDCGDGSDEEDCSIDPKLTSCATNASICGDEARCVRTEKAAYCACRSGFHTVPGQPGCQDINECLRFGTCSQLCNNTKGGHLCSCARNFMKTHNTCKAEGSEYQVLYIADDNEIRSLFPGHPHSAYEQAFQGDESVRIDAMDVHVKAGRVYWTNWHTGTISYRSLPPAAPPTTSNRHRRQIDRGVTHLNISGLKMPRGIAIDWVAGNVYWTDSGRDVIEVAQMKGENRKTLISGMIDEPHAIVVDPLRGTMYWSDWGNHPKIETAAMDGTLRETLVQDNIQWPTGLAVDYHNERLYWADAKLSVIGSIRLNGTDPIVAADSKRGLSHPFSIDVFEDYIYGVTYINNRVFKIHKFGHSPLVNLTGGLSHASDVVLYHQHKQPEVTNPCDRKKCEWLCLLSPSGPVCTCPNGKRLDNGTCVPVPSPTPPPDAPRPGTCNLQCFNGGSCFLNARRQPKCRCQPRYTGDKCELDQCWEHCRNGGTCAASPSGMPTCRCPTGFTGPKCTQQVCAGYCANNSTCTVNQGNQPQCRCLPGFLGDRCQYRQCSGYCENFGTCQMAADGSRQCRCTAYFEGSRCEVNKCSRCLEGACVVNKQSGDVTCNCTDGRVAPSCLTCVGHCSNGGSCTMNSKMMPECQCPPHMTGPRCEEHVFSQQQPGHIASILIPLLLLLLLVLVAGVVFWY

B1: receptor-associated protein (RAP) (ligand)
chain: YSREKNQPKPSPKRESGEEFRMEKLNQLWEKAQRLHLPPVRLAELHADLKIQERDELAWKKLKLDGLDEDGEKEARLIRNLNVILAKYGLDGKKDARQVTSNSLSGTQEDGLDDPRLEKLWHKAKTSGKFSGEELDKLWREFLHHKEKVHEYNVLLETLSRTEEIHENVISPSDLSDIKGSVLHSRHTELKEKLRSINQGLDRLRRVSHQGYSTEAEFEEPRVIDLWDLAQSANLTDKELEAFREELKHFEAKIEKHNHYQKQLEIAHEKLRHAESVGDGERVSRSREKHALLEGRTKELGYTVKKHLQDLSGRISRARHNEL
  ratio of the apical-to-basolateral to the basolateral-to-apical permeability coefficient of 125I-RAP in MEGt-transfected MDCK cells: 460 fold
